The record followed here is patent publication US20160040149A1, “Compositions Having Dicamba Decarboxylase Activity and Methods of Use” (priority 2013, published 2016).

B1: 575 (protein)
chain: MAQGLVALEEHFAIPETLQDAAGFVPGDYWKELQHRLLDIQDTRLKEMDKHGIGTMILSLAAPAVQAIPDRRKAIELARRANDFLAEEVAKRPDRFLAFAALPLQDVDAATSELQRCVADLGFVGAMVNGFSQEGDGQTPLYYDLPQYRPFWKEVEKLDVPFYLHPRNPLPQDARIYDGHPWLLGPTWAFAQETAVHALRLMASGLFDEHPRLNIILGHLGEGLPYMMYRIDHRIAWVHATPRYPAKRRFMDYFLENFHITTSGNFRTQTLIDAILEIGADRILFSTDWPFENIDHAADWFNATSIAEADRVKIGRTNARRLFKLDVR
modifications: Dicamba decarboxylase variant
B2: 572 (protein)
chain: MAQGKVALEEHFAIPETLQDAAGFVPGDYWKELQHRLLDIQDTRLKEMDKHEIGTMILSLAAPAVQAIPDRRKAIELAKRANDFLAEEVAKRPDRFLAFAALPLQDVDAATEELQRCVADLGFVGAMVNGFSQEGDGQTPLYYDLPQYRPFWGEVEKLDVPFYLHPRNPLPQDSRIYDGHPWLLGPTWAFAQETAVHALRLMASGLFDEHPRLNIILGHMGEGLPYMMYRIDHRIAWVKAPPDYPAKRRFMDYFLENFWITTSGNFRTQTLIDAILEIGADRILFSTDWPFENIDHAADWFNATSIAEADRVKIGRTNARRLFKLDGR
modifications: Dicamba decarboxylase variant
B3: 576 (protein)
chain: MAQGLVALEEHFAIPETLQDAAGFVPGDYWKELQHRLLDIQDTRLKEMDKHGIGTMVLSLAAPAVQAIPDRRKAIEIARRANDFLAEEVAKRPDRFLAFAALPLQDVDAATEELQRCVADLGFVGAMVNGFSQEGDGQTPLYYDLPQYRPFWGEVEKLDVPFYLHPRNPLPQDARIYDGHPWLLGPTWAFAQETAVHALRLMASGLFDEHPRLNIILGHLGEGLPYMMYRIDHRIAWVEAPPDYPAKRRFMDYFLENFHITTSGNFRTQTLIDAILEIGADRILFSTDWPFENIDHAADWFAATSIAEADRVKIGRTNARRLFKLDGR
modifications: Dicamba decarboxylase variant
B4: 579 (protein)
chain: MAQGLVALEEHFAIPETLNDAAGFVPGDYWKELQHRLLDIQDTRLKEMDKHEIGTMVLSLAAPAVQAIPDRRQAIELAKRANDFLAEEVAKRPDRFLAFAALPLQDVEAATEELQRCVADLGFVGAMVNGFSQEGDGQTPLYYDLPQYRPFWKEVEKLDVPFYLHPRNPLPQDSRIYDGHPWLLGPTWAFAQETAVHALRLMASGLFDEHPRLNIILGHMGEGLPYMMYRIDHRIAWVKAPPDYPAKRRFMDYFLENFHITTSGNFRTQTLIDAILEIGADRILFSTDWPFENIDHAADWFNATSIAEADRVKIGRTNARRLFKLDGS
modifications: Dicamba decarboxylase variant
B5: 585 (protein)
chain: MAQGKVALEEHFAIPETLQDAAGFVPGDYWKELQHRLMDIQDTRLKEMDKHEIGTMVLSLAAPAVQAIPDRRKAIELAKRANDFLAEEVAKRPDRFLAFAALPMQDPEAATEELQRCVADLGFVGAMVNGFSQEGDGQTPLYYDLPQYRPFWGEVEKLDVPFYLHPRNPLPQDARIYDGHPWLLGPTWAFAQETAVHALRLMASGLFDEHPRLNIILGHMGEGLPYMMYRIDHRIAWVKAPPDYPAKRRFMDYFLENFWITTSGNFRTQTLIDAILEIGADRILFSTDWPFENIDHAADWFAATSIAEADRVKIGRTNARNLFKLDVS
modifications: Dicamba decarboxylase variant
B6: 580 (protein)
chain: MAQGLVALEEHFAIPETLNDAAGFVPGDYWKELQHRLLDIQDTRLKEMDKHEIGTMVLSLAAPAVQAIPDRRQAIELARRANDFLAEEVAKRPDRFLAFAALPLQDPDAATEELQRCVADLGFVGAMVNGFSQEGDGQTPLYYDLPQYRPFWGEVEKLDVPFYLHPRNPLPQDARIYDGHPWLLGPTWAFAQETAVHALRLMASGLFDEHPRLNIILGHMGEGLPYMMYRIDHRIAWVKAPPRYPAKRRFMDYFLENFHITTSGNFRTQTLIDAILEIGADRILFSTDWPFENIDHAADWFAATSIAEADRVKIGRTNARRLFKLDGR
modifications: Dicamba decarboxylase variant
B7: 577 (protein)
chain: MAQGLVALEEHFAIPETLNDAAGFVPGDYWKELQHRLLDIQDERLKEMDKHGIGTMILSLAAPAVQAIPDRRKAIEIAKRANDFLAEEVAKRPDRFLAFAALPLQDVDAATEELQRCVADLGFVGAMVNGFSQEGDGQTPLYYDLPQYRPFWKEVEKLDVPFYLHPRNPLPQDSRIYDGHPWLLGPTWAFAQETAVHALRLMASGLFDEHPRLNIILGHMGEGLPYMMYRIDHRIAWVKAPPRYPAKRRFMDYFLENFWITTSGNFRTQTLIDAILEIGADRILFSTDWPFENIDHAADWFAATSIAEADRVKIGRTNARRLFKLDVS
modifications: Dicamba decarboxylase variant
B8: 581 (protein)
chain: MAQGLVALEEHFAIPETLQDAAGFVPGDYWKELQHRLLDIQDTRLKEMDKHEIGTMVLSLAAPAVQAIPDRRKAIELAKRANDFLAEEVAKRPDRFLAFAALPLQDVDAATSELQRCVADLGFVGAMVNGFSQEGDGQTPLYYDLPQYRPFWKEVEKLDVPFYLHPRNPLPQDARIYDGHPWLLGPTWAFAQETAVHALRLMASGLFDEHPRLNIILGHMGEGLPYMMYRIDHRIAWVKAPPDYPAKRRFMDYFLENFHITTSGNFRTQTLIDAILEIGADRILFSTDWPFENIDHAADWFAATSIAEADRVKIGRTNARRLFKLDGS
modifications: Dicamba decarboxylase variant
B9: 574 (protein)
chain: MAQGLVALEEHFAIPETLQDAAGFVPGDYWKELQHRLLDIQDTRLKEMDKHGIGTMILSLAAPAVQAIPDRRKAIEIARRANDFLAEEVAKRPDRFLAFAALPLQDVDAATEELQRCVADLGFVGAMVNGFSQEGDGQTPLYYDLPQYRPFWKEVEKLDVPFYLHPRNPLPQDSRIYDGHPWLLGPTWAFAQETAVHALRLMASGLFDEHPRLNIILGHLGEGLPYMMYRIDHRIAWVKAPPDYPAKRRFMDYFLENFHITTSGNFRTQTLIDAILEIGADRILFSTDWPFENIDHAADWFNATSIAEADRVKIGRTNARRLFKLDGS
modifications: Dicamba decarboxylase variant
B10: 583 (protein)
chain: MAQGKVALEEHFAIPETLQDAAGFVPGDYWKELQHRLLDIQDTRLKEMDKHEIGTMILSLAAPAVQGIPDRRKAIELAKRANDFLAEEVAKRPDRFLAFAALPLQDPEAATEELQRCVNDLGFVGAMVNGFSQEGDGQTPLYYDLPQYRPFWKEVEKLDVPFYLHPRNPLPQDSRIYDGHPWLLGPTWAFAQETAVHALRLMASGLFDEHPRLNIILGHLGEGLPYMMYRIDHRIAWVKAPPRYPAKRRFMDYFLENFWITTSGNFRTQTLIDAILEIGADRILFSTDWPFENIDHAADWFAATSIAEADRVKIGRTNARRLFKLDVR
modifications: Dicamba decarboxylase variant
B11: 586 (protein)
chain: MAQGLVALEEHFAIPETLQDAAGFVPGDYWKELQHRLLDIQDTRLKEMDKHEIGTMVLSLAAPAVQAIPDRRKAIELARRANDFLAEEVAKRPDRFLAFAALPLQDVDAATEELQRCVNDLGFVGAMVNGFSQEGDGQTPLYYDLPQYRPFWKEVEKLDVPFYLHPRNPLPQDSRIYDGHPWLLGPTWAFAQETAVHALRLMASGLFDEHPRLNIILGHLGEGLPYMMYRIDHRIAWVHAPPDYPAKRRFMDYFLENFHITTSGNFRTQTLIDAILEIGADRILFSTDWPFENIDHAADWFNATSIAEADRVKIGRTNARRLFKLDVR
modifications: Dicamba decarboxylase variant
B12: 573 (protein)
chain: MAQGLVALEEHFAIPETLNDAAGFVPGDYWKELQHRLLDIQDTRLKEMDKHGIGTMVLSLAAPAVQAIPDRRKAIEIARRANDFLAEEVAKRPDRFLAFAALPMQDVDAATEELQRCVNDLGFVGAMVNGFSQEGDGQTPLYYDLPQYRPFWKEVEKLDVPFYLHPRNPLPQDSRIYDGHPWLLGPTWAFAQETAVHALRLMASGLFDEHPRLNIILGHLGEGLPYMMYRIDHRIAWVKAPPDYPAKRRFMDYFLENFHITTSGNFRTQTLIDAILEIGADRILFSTDWPFENIDHAADWFAATSIAEADRVKIGRTNARRLFKLDVR
modifications: Dicamba decarboxylase variant
B13: 578 (protein)
chain: MAQGLVALEEHFAIPETLQDAAGFVPGDYWKELQHRLLDMQDERLKEMDRHGIGTMVLSLAAPAVQAIPDRRKAIEIARRANDFLAEEVAKRPDRFLAFAALPLQDVDAATEELQRCVNDLGFVGAMVNGFSQEGDGQTPLYYDLPQYRPFWGEVEKLDVPFYLHPRNPLPQDSRIYDGHPWLLGPTWAFAQETAVHALRLMASGLFDEHPRLNIILGHLGEGLPYMMYRIDHRIAWVKAPPDYPAKRRFMDYFLENFWITTSGNFRTQTLIDAILEIGADRILFSTDWPFENIDHAADWFAATSIAEADRVKIGRTNARNLFKLDGR
modifications: Dicamba decarboxylase variant
B14: 582 (protein)
chain: MAQGLVALEEHFAIPETLNDAAGFVPGDYWKELQHRLMDIQDTRLKEMDKHEIGTMVLSLAAPAVQAIPDRRKAIEIARRANDFLAEEVAKRPDRFLAFAALPLQDPDAATEELQRCVNDLGFVGAMVNGFSQEGDGQTPLYYDLPQYRPFWGEVEKLDVPFYLHPRNPLPQDARIYDGHPWLLGPTWAFAQETAVHALRLMASGLFDEHPRLNIILGHMGEGLPYMMYRIDHRIAWVKAPPDYPAKRRFMDYFLENFHITTSGNFRTQTLIDAILEIGADRILFSTDWPFENIDHAADWFNATSIAEADRVKIGRTNARRLFKLDGS
modifications: Dicamba decarboxylase variant
B15: 584 (protein)
chain: MAQGKVALEEHFAIPETLNDAAGFVPGDYWKELQHRLLDIQDTRLKEMDKHGIGTMILSLAAPAVQGIVDRRQAIEIAKRANDFLAEEVAKRPDRFLAFAALPLQDPDAATSELQRCVADLGFVGAMVNGFSQEGDGQTPLYYDLPQYRPFWKEVEKLDVPFYLHPRNPLPQDARIYDGHPWLLGPTWAFAQETAVHALRLMASGLFDEHPRLNIILGHMGEGLPYMMYRIDHRIAWVKAPPDYPAKRRFMDYFLENFHITTSGNFRTQTLIDAILEIGADRILFSTDWPFENIDHAADWFAATSIAEADRVKIGRTNARRLFKLDVR
modifications: Dicamba decarboxylase variant

The assay can be described thus: DNA shuffling libraries: 14CO2 capturing assay in 384-well format, fold activity of backbone (Megatable 2). The following applies: relative to backbone SEQ ID NO: 509 (DDEC0810).
For B1, the “Fold Activity” value came to 1.3 fold. Turning to B2, the “Fold Activity” value was 1.0 fold.

On to B3, for which the “Fold Activity” value came out at 1.2 fold.

B4: the “Fold Activity” value was determined as 1.0 fold.

Turning to B5, the “Fold Activity” value was 1.8 fold. For the molecule B6, the “Fold Activity” value was determined as 1.3 fold. Consider B7, for which the “Fold Activity” value is listed as 1.2 fold. Turning to B8, the “Fold Activity” value is 1.1 fold. Consider B9, for which the “Fold Activity” value is listed as 1.1 fold.

For the molecule B10, the “Fold Activity” value came to 1.0 fold. On to B11, for which the “Fold Activity” value is 1.2 fold. As to B12, the “Fold Activity” value is 0.8 fold. Then B13, with 0.9 fold; and B14, with 1.4 fold. For the molecule B15, the “Fold Activity” value amounted to 0.9 fold.
